Reference: publication PMC3360035

Molecular target: Human γD-crystallin V75D (human)
Sequence (P07320 2-174 V76D): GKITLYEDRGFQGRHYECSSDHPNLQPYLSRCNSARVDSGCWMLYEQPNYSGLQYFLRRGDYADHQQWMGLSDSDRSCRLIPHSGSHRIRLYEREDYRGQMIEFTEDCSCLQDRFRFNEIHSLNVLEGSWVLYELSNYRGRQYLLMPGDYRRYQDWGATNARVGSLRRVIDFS

B1: αB-crystallin, wild type (natural protein)
chain: MDIAIHHPWIRRPFFPFHSPSRLFDQFFGEHLLESDLFPTSTSLSPFYLRPPSFLRAPSWFDTGLSEMRLEKDRFSVNLDVKHFSPEELKVKVLGDVIEVHGKHEERQDEHGFISREFHRKYRIPADVDPLTITSSLSSDGVLTVNGPRKQVSGPERTIPITREEKPAVTAAPKK
**Q.** With B1 as the binder, how does the suppression of aggregation on dilution out of 5 M GdnHCl (from maximum A350), αB in 5-fold molar excess read?
**A.** 73%
